Values of other authors, collected in publication PMC2786309 (Bioconjugate chemistry, 2009).

Columns and labels:
[1] = tested on: MC1 receptor present on melanoma cells; conditions: statement in method text, no reference given
[2] = tested on: B16/F1 melanoma-bearing C57 mice; conditions: mouse, in vivo

In the case of NDP-MSH, the “Affinity for the MC1 receptor” value [1] is given as “picomolar affinity”.
For “^111In-DOTA-[β-Ala^3, Nle^4, Asp^5, D-Phe^7, Lys^10]-α-MSH3-10 [^111In-DOTA-MSHoct]”, the Tumor uptake ([2]; 4 h) is listed as 4.31 ± 0.30 % ID/g.
For “^111In-DOTA-Gly-Glu-c[Lys-Nle-Glu-His-DPhe-Arg-Trp-Gly-Arg-Pro-Val-Asp] (FRWGRPVD; not fully specified; 111In-DOTA, Gly-Glu-Lys-Nle-Glu-His N-term, cyclic; printed: Phe-Arg-Trp-Gly-Arg-Pro-Val-Asp) [^111In-DOTA-GlyGlu-CycMSH]”, the “Renal uptake reduction compared to 111In-DOTA-CycMSH” value [2] is listed as 44% and the Melanoma uptake ([2]; 2 h) is listed as 10.40 ± 1.40 % ID/g.
